Among the data in patent US20200138716A1, “COMPOSITIONS AND METHODS FOR INDUCING NANOPARTICLE-MEDIATED MICROVASCULAR EMBOLIZATION OF TUMORS” (Poseida Therapeutics, Inc., priority 2014, published 2020) are plasma clearance and serum chemistry panel values, retold here.

Series [1] can be described thus: Biodistribution and pharmacokinetics after IV injection in 4T1 tumor-bearing mice. Format: in vivo, balb/c mice. Conditions: via the kidneys and into the bladder. On the procedure: In example studies, 0.5×106 to 1×10^6 4T1 mouse mammary carcinoma cells were injected into the mammary fat pads of balb/c mice. Once the tumors were greater than 5 mm in diameter, mice were randomized and treated via tail vein catheter with PEMs (at 100 μL of 2.5 mg/mL Mb, corresponding to 50 mg/mL polymer suspensions), empty polymersomes (at equivalent polymer doses), and NIR-Mb (at equivalent myoglobin doses) (n=5 per group). NIR-Mb and PEM were reduced to their oxy-myoglobin form prior to treatment, following protocols discussed above. […]
Fluorescence images were analyzed with Living Image) 4.2 software by measuring radiant efficiency of regions of interest (ROIs). […] The total radiant efficiency of the plasma in each capillary tube was measured in a region of interest of consistent dimensions. Plasma concentrations of PEM and empty polymersomes were calculated based on a standard curve, which was first determined by adding solutions of known concentrations of PZn3-loaded emissive polymersomes to untreated plasma and measuring fluorescence from the capillary tubes. […] Myoglobin concentration versus time was estimated based on the PZn3 fluorescence of the PEM and the IRDye800 fluorescence of NIR-Mb, respectively, with the assumption that all myoglobin remained associated with the PEM following injection.

Series [2] is described as follows: Serum chemistry panel in tumor-bearing mice. The conditions noted are these: n=5 mice per treatment. Format: in vivo. As for the experimental part: In example studies, 0.5×106 to 1×10^6 4T1 mouse mammary carcinoma cells were injected into the mammary fat pads of balb/c mice. Once the tumors were greater than 5 mm in diameter, mice were randomized and treated via tail vein catheter with PEMs (at 100 μL of 2.5 mg/mL Mb, corresponding to 50 mg/mL polymer suspensions), empty polymersomes (at equivalent polymer doses), and NIR-Mb (at equivalent myoglobin doses) (n=5 per group). NIR-Mb and PEM were reduced to their oxy-myoglobin form prior to treatment, following protocols discussed above. Mice were sacrificed at 24 h (for biodistribution/pharmacokinetic studies) or at 6-9 days (for histology and toxicology assessment following tumor efficacy studies). In both cases, EF-5 was used to stain for hypoxia and Hoechst solution for perfusion. Tumors were collected at sacrifice. Immunofluorescence (IF) was carried out to image EF-5 and Hoechst distribution throughout the tumors. The same tumor sections were also stained with hematoxylin and eosin (H&E) for immunohistologic (IHC) analysis. Blood was collected via cardiac puncture at sacrifice; plasma was isolated and stored at −80° C. for later analyses.
FIG. 21 provides results of a serum chemistry panel done for a set of tumor-bearing mice injected with each of the following treatments (n=5 mice per treatment): NIR-myoglobin (control), empty polymersomes (control), and PEMs.

B1: NIR-Mb: near-infrared fluorophore (IRDye800cw NHS) covalently attached to the lysines on horse skeletal myoglobin (conjugate, UniProt P68082 2-154, looked up)
Myoglobin: GLSDGEWQQVLNVWGKVEADIAGHGQEVLIRLFTGHPETLEKFDKFKHLKTEAEMKASEDLKKHGTVVLTALGGILKKKGHHEAELKPLAQSHATKHKIPIKYLEFISDAIIHVLHSKHPGDFGADAQGAMTKALELFRNDIAAKYKELGFQG
modifications: IRDye800CW on lysines
notes: near-infrared fluorophore (IRDye800cw NHS) covalently attached to the lysines on horse skeletal myoglobin
Turning to B1, the plasma clearance entry in series [1] is on record as “extremely rapid plasma clearance”. For the same molecule, in series [2], the serum chemistry panel result is given as “no consistently elevated levels for any parameter”.
